From patent US20220242932A1, “ULINASTATIN POLYPEPTIDES FOR TREATING DISEASES” (DiaMedica USA Inc., priority 2021, published 2022)

T1: neutrophil elastase (Homo sapiens, UniProt P08246)
T1 construct: purchased Enzo Life Sciences
T1 sequence (P08246 30-267): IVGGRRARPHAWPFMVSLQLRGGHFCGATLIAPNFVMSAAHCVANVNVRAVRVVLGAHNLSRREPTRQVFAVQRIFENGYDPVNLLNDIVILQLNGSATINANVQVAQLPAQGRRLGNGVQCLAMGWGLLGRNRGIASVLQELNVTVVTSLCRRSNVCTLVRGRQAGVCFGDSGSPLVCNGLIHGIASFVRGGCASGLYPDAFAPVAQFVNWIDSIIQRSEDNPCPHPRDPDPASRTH


Experiments:
[1] = target: Neutrophil elastase (NE) (UniProt P08246); assay: cell-based or functional assay
[2] = target: T1, neutrophil elastase; assay: Neutrophil Elastase Colorimetric Drug Discovery Assay (Enzo Life Sciences), in vitro inhibition of neutrophil elastase; type: biochemical
Description: In vitro studies were performed to test the ability of ulinastatin to inhibit neutrophil elastase (NE). The recombinant ulinastatin polypeptide (DM300) in this experiment is the UTIΔCS variant (SEQ ID NO: 2), which has an N-linked glycan at residue N45 and a non-natural O-linked glycan at residue T17 after recombinant preparation according to methods described in U.S. Provisional Application Nos. 63/108,733 and 63/021,938 (herein incorporated by reference).
Recombinant ulinastatin (DM300) was tested for inhibition of neutrophil elastase at 8 concentrations of DM300, with triplicate measurements per compound concentration. Neutrophil elastase activity was measured using the Neutrophil Elastase Colorimetric Drug Discovery Assay (Enzo Life Sciences) as per the manufacturer's protocol. 65 μl of assay buffer was placed into the required number of wells of a 96 well, clear, half area plate and equilibrated to 37° C. Inhibitor was added to a final reaction concentration at 100, 31.6, 10, 3.16, 1, 0.316, 0.1, 0.0316, or 0 μg/mL DM300 by addition of 20 μl of 5× concentration of DM300 diluted in assay buffer, followed by 10 μl of diluted neutrophil elastase. 100 μM elastatinal was also included as a control. After 15 minutes at 37° C., 5 μl of diluted substrate was added and the plate was read in SpectraMax m5 Microplate Reader equilibrated to 37° C. Linear portions of the data were selected, and the resulting data was analyzed using GraphPad Prism V.8.2.1.

| IC50 (inhibition of neutrophil elastase activity, colorimetric substrate assay) [1] [µg/mL] | IC50 (inhibition of neutrophil elastase activity, colorimetric substrate assay), molar conversion [1] [nM] | LogIC50 (best-fit value) [1] | inhibitory activity in an in vitro assay of neutrophil elastase activity ([2]; FIG. 1) | HillSlope ([2]; best-fit value, log(inhibitor) vs. response, variable slope (four parameters)) | LogIC50 ([2]; best-fit value, log(inhibitor) vs. response, variable slope (four parameters), concentration in μg/mL) | IC50 ([2]; converted from 3.153 μg/ml, assuming 1 Da=1 g/mol) [nM] | Molecule |
| --- | --- | --- | --- | --- | --- | --- | --- |
| 3.15 | 43.8 | 0.499 log10(µg/ml) |  |  |  |  | Recombinant ulinastatin polypeptide (DM300), UTIΔCS variant (from UniProt P02760 206-352) |
|  |  |  | significant inhibitory activity | −1.004 | 0.4987 | ~43.8 | DM300: recombinant ulinastatin polypeptide, UTIΔCS variant (SEQ ID NO: 2, S10A), N-linked glycan at N45 and non-natural O-linked glycan at T17 (protein, listed as Homo sapiens, N-glycan N45, O-glycan T17) AVLPQEEEGAGGGQLVTEVTKKEDSCQLGYSAGPCMGMTSRYFYNGTSMACETFQYGGCMGNGNNFVTEKECLQTCRTVAACNLPIVRGPCRAFIQLWAFDAVKGKCVLFPYGGCQGNGNKFYSEKECREYCGVPGDGDEELLRFSN |
